Test results: US20050261190A1 (SK, published 2005)

Tests used:
[1] = target: T1, polyubiquitin chains (Ub2-7), synthetic Lys48-linked (UniProt P0CG47 1-76, units linked by Lys48 isopeptide bonds); test: GST pull-down, immunoblot with anti-ubiquitin
T1 construct: A mixture of chains of 2 to 7 ubiquitin units; also called multiubiquitin chains

[2] = target: heat shock protein 70 inducible (Hsp70), endogenous (human, UniProt P0DMV8 2-641); test: cell-based or functional assay
[3] = target: T2, heat shock protein 70 cognate (Hsc70), endogenous (human, UniProt P11142 2-646); test: co-immunoprecipitation with anti-Flag M2 agarose from HEK293T lysate, 2D gel, MALDI-TOF MS (table of Flag-hFAF1 binding proteins)
T2 construct: In the 1D western blots it is detected together with Hsp70 by one anti-Hsc70/Hsp70 monoclonal antibody; statements on 'Hsc70/Hsp70' are written once for each of the two; also called member of Hsc70/Hsp70
T2 sequence (P11142 2-646 limits assumed): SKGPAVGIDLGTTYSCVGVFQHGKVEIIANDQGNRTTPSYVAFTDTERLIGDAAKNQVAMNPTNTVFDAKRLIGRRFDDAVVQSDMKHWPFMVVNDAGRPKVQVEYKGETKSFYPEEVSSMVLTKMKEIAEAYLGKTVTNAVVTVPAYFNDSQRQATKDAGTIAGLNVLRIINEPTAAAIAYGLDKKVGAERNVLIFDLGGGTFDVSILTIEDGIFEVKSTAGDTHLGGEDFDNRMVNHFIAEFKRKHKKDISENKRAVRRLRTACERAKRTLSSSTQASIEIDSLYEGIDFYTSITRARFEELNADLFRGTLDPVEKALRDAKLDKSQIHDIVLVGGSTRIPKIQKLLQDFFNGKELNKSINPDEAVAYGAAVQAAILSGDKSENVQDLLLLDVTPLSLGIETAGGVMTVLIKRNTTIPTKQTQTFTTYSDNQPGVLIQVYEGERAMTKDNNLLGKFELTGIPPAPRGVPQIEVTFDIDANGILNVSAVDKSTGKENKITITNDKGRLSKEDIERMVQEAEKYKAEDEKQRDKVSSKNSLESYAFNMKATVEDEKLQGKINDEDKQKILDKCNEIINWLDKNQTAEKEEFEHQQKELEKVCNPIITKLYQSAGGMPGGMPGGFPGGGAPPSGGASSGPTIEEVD

bacterial Hsp70, DnaK = bacterial Hsp70, DnaK (E. coli, UniProt P0A6Y8 2-638); test: not told (data not shown)
bacterial Hsp70, DnaK, sequence (P0A6Y8 2-638 limits assumed): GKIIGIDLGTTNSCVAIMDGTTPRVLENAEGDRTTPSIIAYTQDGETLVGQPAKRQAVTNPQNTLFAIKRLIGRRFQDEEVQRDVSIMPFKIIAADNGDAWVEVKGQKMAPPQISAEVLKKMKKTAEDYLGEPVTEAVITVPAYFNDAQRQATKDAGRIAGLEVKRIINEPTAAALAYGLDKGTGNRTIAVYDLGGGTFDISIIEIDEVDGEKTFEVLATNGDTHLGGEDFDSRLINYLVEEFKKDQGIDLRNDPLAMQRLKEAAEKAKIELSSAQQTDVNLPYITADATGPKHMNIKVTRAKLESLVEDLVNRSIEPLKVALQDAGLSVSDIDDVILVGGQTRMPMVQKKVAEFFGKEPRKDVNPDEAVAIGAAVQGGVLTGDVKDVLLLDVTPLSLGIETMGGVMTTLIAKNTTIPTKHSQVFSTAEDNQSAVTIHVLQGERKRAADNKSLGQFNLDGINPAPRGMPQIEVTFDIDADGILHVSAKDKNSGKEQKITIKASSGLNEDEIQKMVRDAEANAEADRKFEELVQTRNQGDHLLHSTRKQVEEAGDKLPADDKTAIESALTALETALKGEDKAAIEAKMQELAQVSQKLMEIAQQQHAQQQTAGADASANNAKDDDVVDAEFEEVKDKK

heat shock protein 70 inducible (Hsp70), endogenous, sequence (P0DMV8 2-641): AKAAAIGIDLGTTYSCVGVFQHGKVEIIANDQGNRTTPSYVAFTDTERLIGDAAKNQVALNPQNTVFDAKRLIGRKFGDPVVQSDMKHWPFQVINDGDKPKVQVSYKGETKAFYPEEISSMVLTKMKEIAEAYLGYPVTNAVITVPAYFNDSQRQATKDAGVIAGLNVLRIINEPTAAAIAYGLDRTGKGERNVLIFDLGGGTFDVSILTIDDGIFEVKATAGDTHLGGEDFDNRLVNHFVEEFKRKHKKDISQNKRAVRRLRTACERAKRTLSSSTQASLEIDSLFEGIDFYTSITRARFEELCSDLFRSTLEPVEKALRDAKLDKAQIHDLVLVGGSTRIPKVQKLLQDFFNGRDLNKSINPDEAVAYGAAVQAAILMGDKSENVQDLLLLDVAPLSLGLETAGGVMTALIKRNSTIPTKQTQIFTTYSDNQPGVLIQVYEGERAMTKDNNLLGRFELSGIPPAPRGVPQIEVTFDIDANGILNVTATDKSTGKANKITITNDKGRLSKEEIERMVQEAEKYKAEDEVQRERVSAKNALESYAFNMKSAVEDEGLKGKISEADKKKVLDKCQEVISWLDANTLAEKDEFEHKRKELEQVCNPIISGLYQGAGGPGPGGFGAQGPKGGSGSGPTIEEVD

B1: GST-hFAF1[82-650] (other)
chain: SAFRPVMPSRQIVERQPRMLDFRVEYRDRNVDVVLEDTCTVGEIKQILENELQIPVSKMLLKGWKTGDVEDSTVLKSLHLPKNNSLYVLTPDLPPPSSSSHAGALQESLNQNFMLIITHREVQREYNLNFSGSSTIQEVKRNVYDLTSIPVRHQLWEGWPTSATDDSMCLAESGLSYPCHRLTVGRRSSPAQTREQSEEQITDVHMVSDSDGDDFEDATEFGVDDGEVFGMASSALRKSPMMPENAENEGDALLQFTAEFSSRYGDCHPVFFIGSLEAAFQEAFYVKARDRKLLAIYLHHDESVLTNVFCSQMLCAESIVSYLSQNFITWAWDLTKDSNRARFLTMCNRHFGSVVAQTIRTQKTDQKPLFLIIMGKRSSNEVLNVIQGNTTVDELMMRLMAAMEIFTAQQQEDIKDGDEREARENVKREQDEAYRLSLEADRAKREAREREMAEQFRLEQIRKEQEEEREAIRLSLEQALPPEPKEENAEPVSKLRIRTPSGEFLERRFLASNKLQIVFDFVASKGFPWDEYKLLSTFPRRDVTQLDPNKSLLEVKLFPQETLFLEAKE
notes: Immobilized on glutathione sepharose; also called amino acid 82-650; not shown: glutathione S-transferase (GST) tag
B1: no binding [1].

B2: Flag-hFAF1[366-650] (other, not shown: small tags and cut ends)
chain: YVKARDRKLLAIYLHHDESVLTNVFCSQMLCAESIVSYLSQNFITWAWDLTKDSNRARFLTMCNRHFGSVVAQTIRTQKTDQKPLFLIIMGKRSSNEVLNVIQGNTTVDELMMRLMAAMEIFTAQQQEDIKDGDEREARENVKREQDEAYRLSLEADRAKREAREREMAEQFRLEQIRKEQEEEREAIRLSLEQALPPEPKEENAEPVSKLRIRTPSGEFLERRFLASNKLQIVFDFVASKGFPWDEYKLLSTFPRRDVTQLDPNKSLLEVKLFPQETLFLEAKE
In the case of B2, the “SAPK/JNK activity after heat shock” value [2] is reported as 13 fold.

B3: Flag-tagged hFAF1 (human Fas associated factor 1, full form) (other)
chain: MASNMDREMILADFQACTGIENIDEAITLLEQNNWDLVAAINGVIPQENGILQSEYGGETIPGPAFNPASHPASAPTSSSSSAFRPVMPSRQIVERQPRMLDFRVEYRDRNVDVVLEDTCTVGEIKQILENELQIPVSKMLLKGWKTGDVEDSTVLKSLHLPKNNSLYVLTPDLPPPSSSSHAGALQESLNQNFMLIITHREVQREYNLNFSGSSTIQEVKRNVYDLTSIPVRHQLWEGWPTSATDDSMCLAESGLSYPCHRLTVGRRSSPAQTREQSEEQITDVHMVSDSDGDDFEDATEFGVDDGEVFGMASSALRKSPMMPENAENEGDALLQFTAEFSSRYGDCHPVFFIGSLEAAFQEAFYVKARDRKLLAIYLHHDESVLTNVFCSQMLCAESIVSYLSQNFITWAWDLTKDSNRARFLTMCNRHFGSVVAQTIRTQKTDQKPLFLIIMGKRSSNEVLNVIQGNTTVDELMMRLMAAMEIFTAQQQEDIKDGDEREARENVKREQDEAYRLSLEADRAKREAREREMAEQFRLEQIRKEQEEEREAIRLSLEQALPPEPKEENAEPVSKLRIRTPSGEFLERRFLASNKLQIVFDFVASKGFPWDEYKLLSTFPRRDVTQLDPNKSLLEVKLFPQETLFLEAKE
notes: Transiently overexpressed in HEK293T cells and pulled out of the lysate with anti-Flag M2 agarose; also called Flag-hFAF1; pFlag-CMV-2/hFAF1; not shown: Flag tag from the pFlag-CMV-2 vector
For B3, the “SAPK/JNK activity after heat shock” value [2] was 16 fold and the binding result [3] was “binds”.

B4: purified recombinant hFAF1 (other)
chain: B3 chain
notes: also called hFAF1 cleaved by thrombin from GST-hFAF1
B4: binds (bacterial Hsp70, DnaK).
